The supplement of paper PMC10724198
± gives the standard deviation of the averaged measurements.

Assays:
[1] = tested on: Saccharomyces cerevisiae; test: protein stability index of tFT-peptide fusion (C-terminal peptide) (PSI (0-1 scale)); higher = more stable (slower turnover)
Description: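 MPS profiling in S. cerevisiae of the tFT-X12 degron library: putative degron peptides plus stable controls, 12 aa, fused to the C-terminus of a sfGFP-mCherry timer. Cells are FACS-sorted into 8 mCherry/sfGFP bins and deep-sequenced. PSI runs from 0 (unstable) to 1 (stable). Backgrounds are wild type, das1Δ and doa10Δ at 30 °C, and wild type, das1Δ, cdc34-1 and cdc53-1 at 37 °C; 2-3 technical replicates each.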

[2] = tested on: Saccharomyces cerevisiae; test: as above; settings: genetic background: wild type; temperature: 30 C
[3] = genetic background: cdc34-1, temperature: 37 C
[4] = genetic background: cdc53-1, temperature: 37 C
[5] = genetic background: das1 deletion, temperature: 30 C
[6] = genetic background: das1 deletion, temperature: 37 C
[7] = genetic background: doa10 deletion, temperature: 30 C
[8] = genetic background: wild type, temperature: 30 C
[9] = genetic background: wild type, temperature: 37 C
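Note: PSI is a weighted mean of sequencing reads over stability bins, variants kept only with over 10 reads, mCherry proximal and sfGFP distal, peptide attached via GGGS linker.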

Sequence	protein stability index [1, 3]	protein stability index [1, 4]	protein stability index [1, 5]	protein stability index [1, 6]	protein stability index [1, 7]	protein stability index [1, 8]	protein stability index [1, 9]	protein stability index [2]
VLVRVIYLLVSG	0.276 ± 0.007	0.373 ± 0.013	0.23 ± 0.038	0.469 ± 0.0053	0.178 ± 0.026	0.234 ± 0.029	0.404 ± 0.017	0.347 ± 0.02
VLVWLRLRVGLR	0.212 ± 0.025	0.322 ± 0.016	0.218 ± 0.045	0.381 ± 0.0098	0.199 ± 0.0058	0.213 ± 0.021	0.3468 ± 0.0019	0.3002 ± 0.00052
VLYCRSCFLRVS	0.543 ± 0.021	0.584 ± 0.015	0.436 ± 0.024	0.6292 ± 0.0028	0.1667 ± 0.0015	0.161 ± 0.0061	0.362 ± 0.023	0.281 ± 0.021
VMIFYVLGRVWD	0.428 ± 0.0048	0.5209 ± 0.0028	0.293 ± 0.056	0.594 ± 0.025	0.27 ± 0.0079	0.314 ± 0.033	0.581 ± 0.082	0.455 ± 0.0091
VNFVLTLYPYLV	0.512 ± 0.024	0.577 ± 0.019	0.507 ± 0.024	0.603 ± 0.02	0.275 ± 0.016	0.278 ± 0.02	0.4472 ± 0.00073	0.378 ± 0.014
VPPLPPPGPPTF	0.705 ± 0.0084	0.7583 ± 0.0011	0.667 ± 0.012	0.733 ± 0.014	0.683 ± 0.029	0.6765 ± 0.0056	0.708 ± 0.011	0.699 ± 0.015
VQLLTRLKTPHP	0.6608 ± 0.0013	0.7443 ± 0.0035	0.656 ± 0.016	0.719 ± 0.015	0.636 ± 0.021	0.65 ± 0.024	0.716 ± 0.021	0.733 ± 0.026
VRDQGWILNMLL	0.7266 ± 0.007	0.771 ± 0.024	0.651 ± 0.032	0.7546 ± 0.0011	0.3707 ± 0.0019	0.422 ± 0.028	0.639 ± 0.023	0.485 ± 0.016
VRICVVLRVCWW	0.0855 ± 0.0017	0.139 ± 0.00094	0.115 ± 0.034	0.217 ± 0.0071	0.117 ± 0.034	0.12 ± 0.024	0.18 ± 0.0089	0.256 ± 0.092
VRINLLFVWFSR	0.407 ± 0.0067	0.472 ± 0.028	0.331 ± 0.044	0.491 ± 0.012	0.359 ± 0.016	0.334 ± 0.04	0.464 ± 0.033	0.396 ± 0.026
VRLSQVNRLICT	0.554 ± 0.022	0.566 ± 0.065	0.437 ± 0.024	0.585 ± 0.021	0.394 ± 0.019	0.426 ± 0.0098	0.573 ± 0.017	0.524 ± 0.052
VRRGAVWCCLCG	0.666 ± 0.0079	0.73 ± 0.0094	0.623 ± 0.012	0.748 ± 0.004	0.368 ± 0.017	0.405 ± 0.014	0.633 ± 0.0059	0.474 ± 0.011
VRVLAALVLCVV	0.159 ± 0.029	0.306 ± 0.021	0.217 ± 0.019	0.3799 ± 0.00079	0.156 ± 0.0081	0.189 ± 0.011	0.322 ± 0.011	0.312 ± 0.0089
VRYCFFWVRAVV	0.286 ± 0.027	0.335 ± 0.019	0.233 ± 0.04	0.4555 ± 0.0013	0.173 ± 0.0088	0.194 ± 0.022	0.3718 ± 0.0019	0.278 ± 0.051
VTGYLSTLTMLC	0.6 ± 0.015	0.654 ± 0.0097	0.551 ± 0.02	0.671 ± 0.023	0.231 ± 0.0097	0.247 ± 0.03	0.5014 ± 0.0011	0.3832 ± 0.0015
VTWNFIVYVCCF	0.164 ± 0.0058	0.204 ± 0.0029	0.209 ± 0.016	0.25776 ± 1.6e-05	0.189 ± 0.017	0.19 ± 0.014	0.219 ± 0.0045	0.283 ± 0.011
VVFLWRCRLLLG	0.276 ± 0.015	0.346 ± 0.015	0.213 ± 0.034	0.416 ± 0.0042	0.0938 ± 0.011	0.115 ± 0.027	0.154 ± 0.0056	0.164 ± 0.019
